Tests used:
[1] = target: T1, recombinant MICA extracellular region Fc fusion protein (MICA-Fc) (human); experiment: ELISA, MICA-Fc coated
T1 construct: also called human MICA
Experimental: The ELISA assay was used to detect the binding characteristics of the MICA antibody obtained in Example 1. The MICA extracellular region Fc fusion protein (MICA-Fc) as described above was coated into a 96-well plate. The signal strength after antibody addition was used to determine the binding characteristics of the antibody to MICA.
The MICA-Fc fusion protein (amino acid sequence as set forth in SEQ ID NO: 23) was diluted to 1 μg/mL with PBS buffer and added to a 96-well plate in a volume of 100 μL/well and left overnight at 4° C. The PBS buffer solution was sucked off from the 96-well plate. The plate was washed 6 times with PBST (pH 7.2, PBS containing 0.1% Tween 20) buffer solution. 200 μL/well PBS/10% BSA was added and incubated at 37 °C for 2 hours for blocking. The blocking solution was removed. The plate was washed 6 times with PBST. The MICA antibody to be tested was diluted to an appropriate concentration with 100 μL/well PBST/0.05% BSA, and incubated for 1 h at 37° C. The reaction system was removed. The plate was washed 6 times with PBST. HRP (horseradish peroxidase)-labeled anti-mouse antibody secondary antibody (Boster, BA1050) was diluted with PBST/0.05% BSA at 100 μL/well and incubated for 1 h at 37° C. After the incubation, the plate was washed 6 times with PBST, and 80 μL/well TMB (tetramethylbenzidine) was added. […] The absorbance at […] was read with a microplate reader.

[2] = target: T2, MICA extracellular domain α3 domain Fc fusion protein (MICA α3-Fc) (human); experiment: ELISA, MICAα3-Fc coated
T2 construct: also called MICA α3 domain
T2 sequence (chain, as listed by the source limits assumed): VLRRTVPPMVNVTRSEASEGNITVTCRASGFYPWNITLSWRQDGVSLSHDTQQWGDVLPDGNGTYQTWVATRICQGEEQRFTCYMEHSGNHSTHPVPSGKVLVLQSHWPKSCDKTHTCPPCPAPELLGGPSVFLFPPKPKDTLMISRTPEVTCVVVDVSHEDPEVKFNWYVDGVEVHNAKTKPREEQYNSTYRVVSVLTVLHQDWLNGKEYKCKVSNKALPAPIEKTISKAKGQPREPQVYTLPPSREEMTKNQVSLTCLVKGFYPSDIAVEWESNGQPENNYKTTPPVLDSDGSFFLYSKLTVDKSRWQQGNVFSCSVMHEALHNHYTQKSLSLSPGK
Experimental: The MICAα3-Fc fusion protein (amino acid sequence as set forth in SEQ ID NO: 24) was diluted to 1 μg/mL with PBS buffer and added to a 96-well plate in a volume of 100 μL/well and left overnight at 4° C. The PBS buffer solution was sucked off from the 96-well plate. The plate was washed 6 times with PBST (pH 7.2, PBS containing 0.1% Tween 20) buffer solution. 200 μL/well PBS/10% BSA was added and incubated at 37 °C for 2 hours for blocking. The blocking solution was removed. The plate was washed 6 times with PBST. The MICA antibodies to be tested were diluted to an appropriate concentration with 100 µL/well PBST/0.05% BSA, and incubated at 37 °C for 1 h. The reaction system was removed. The plate was washed 6 times with PBST. HRP (horseradish peroxidase)-labeled anti-mouse antibody secondary antibody (Boster, BA1050) was diluted with PBST/0.05% BSA at 100 μL/well and incubated for 1 h at 37° C. The plate was washed 6 times with PBST, and 80 μL/well TMB (tetramethylbenzidine) was added. After 3 min of incubation at room temperature, and 80 μL/well 4M sulfuric acid was added to terminate the reaction. The absorbance at […] was read with a microplate reader.

[3] = target: T3, MICA*002α3-Fc fusion protein; experiment: ELISA, MICA*002α3-Fc coated
T3 construct: also called MICAα3*002 variant
T3 sequence (chain, as listed by the source limits assumed): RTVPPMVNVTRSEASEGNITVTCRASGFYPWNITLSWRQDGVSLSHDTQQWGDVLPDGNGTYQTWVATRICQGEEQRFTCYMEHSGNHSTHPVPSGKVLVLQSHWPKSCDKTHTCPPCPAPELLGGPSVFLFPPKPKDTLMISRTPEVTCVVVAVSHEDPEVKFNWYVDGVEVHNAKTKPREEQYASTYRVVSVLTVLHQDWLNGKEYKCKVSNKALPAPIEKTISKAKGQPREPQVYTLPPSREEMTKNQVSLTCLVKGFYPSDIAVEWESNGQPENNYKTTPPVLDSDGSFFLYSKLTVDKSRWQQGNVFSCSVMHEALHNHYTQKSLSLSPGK
Description: (§1) The binding characteristics of the MICA antibody and the α3 domains of MICA and MICB was detected by ELISA in this example. The obtained various MICA, MICB variant extracellular region α3 domains (MICAα3*-002, 004, 005, 008, MICBα3*-005) Fc fusion proteins (MICAα3-Fc, MICBα3-Fc) and control antibody IgG were coated into a 96-well plate by the inventors. The signal strength after antibody addition was used to determine the binding characteristics of the antibody to MICA and MICB.
(§2) The fusion protein (MICA*002α3-Fc, amino acid sequence is as set forth in SEQ ID NO: 33; MICA*004α3-Fc, the amino acid sequence is as set forth in SEQ ID NO: 34; MICA*005α3-Fc, the amino acid sequence is as set forth in SEQ ID NO: 35; MICA*008α3-Fc, the amino acid sequence is as set forth in SEQ ID NO: 36; MICB*005α3-Fc, the amino acid sequence is as set forth in SEQ ID NO: 37) was diluted to 1 μg/ml with the PBS buffer and added to a 96-well plate in a volume of 100 μL/well and left overnight at 4° C. The PBS buffer solution was sucked off from the 96-well plate. The plate was washed 6 times with PBST (pH 7.2, PBS containing 0.1% Tween 20) buffer solution. 200 μL/well PBS/10% BSA was added and incubated at 37° C. for 2 hours for blocking. The blocking solution was removed. The plate was washed 6 times with PBST. […] The absorbance at […] was read with a microplate reader. […]

[4] = target: T4, MICA*004α3-Fc fusion protein; experiment: ELISA, MICA*004α3-Fc coated
T4 construct: also called MICAα3*004 variant
T4 sequence (chain, as listed by the source limits assumed): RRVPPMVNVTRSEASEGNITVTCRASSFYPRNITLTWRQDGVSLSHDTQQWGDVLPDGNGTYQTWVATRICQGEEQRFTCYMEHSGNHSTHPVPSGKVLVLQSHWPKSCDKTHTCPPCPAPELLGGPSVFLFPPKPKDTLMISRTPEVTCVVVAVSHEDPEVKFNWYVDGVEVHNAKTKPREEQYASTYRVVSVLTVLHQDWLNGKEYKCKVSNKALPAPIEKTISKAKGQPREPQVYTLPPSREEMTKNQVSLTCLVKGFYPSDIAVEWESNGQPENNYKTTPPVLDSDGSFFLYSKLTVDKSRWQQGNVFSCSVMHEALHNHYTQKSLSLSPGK
Description: as §1, §2

[5] = target: T5, MICA*008α3-Fc fusion protein; experiment: ELISA, MICA*008α3-Fc coated
T5 construct: also called MICAα3*008 variant
T5 sequence (chain, as listed by the source limits assumed): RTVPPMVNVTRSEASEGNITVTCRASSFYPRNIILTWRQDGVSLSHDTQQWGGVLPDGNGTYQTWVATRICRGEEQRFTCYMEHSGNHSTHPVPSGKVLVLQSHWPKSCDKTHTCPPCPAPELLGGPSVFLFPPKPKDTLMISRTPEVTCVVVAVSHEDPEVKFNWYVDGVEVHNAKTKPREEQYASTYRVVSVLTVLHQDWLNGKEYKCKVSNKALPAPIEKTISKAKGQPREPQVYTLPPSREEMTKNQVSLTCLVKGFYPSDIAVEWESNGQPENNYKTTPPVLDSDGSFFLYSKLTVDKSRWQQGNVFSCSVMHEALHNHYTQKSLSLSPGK
Description: as §1, §2

[6] = target: T6, MICB*005α3-Fc fusion protein; experiment: ELISA, MICB*005α3-Fc coated
T6 construct: also called MICBα3*005 variant
T6 sequence (chain, as listed by the source limits assumed): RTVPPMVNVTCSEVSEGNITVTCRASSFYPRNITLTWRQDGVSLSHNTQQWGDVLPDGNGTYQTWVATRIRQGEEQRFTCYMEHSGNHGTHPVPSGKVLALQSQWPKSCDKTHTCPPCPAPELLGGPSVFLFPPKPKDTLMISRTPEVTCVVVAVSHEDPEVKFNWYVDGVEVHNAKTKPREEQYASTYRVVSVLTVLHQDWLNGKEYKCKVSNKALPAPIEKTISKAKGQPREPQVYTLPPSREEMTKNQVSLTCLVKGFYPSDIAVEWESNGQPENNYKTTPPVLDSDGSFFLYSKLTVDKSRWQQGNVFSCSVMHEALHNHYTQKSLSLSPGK
Description: as §1, §2

[7] = target: T7, MICA expressed on CHO-K1-MICA cells (human, UniProt Q29983 24-383); experiment: Western blot of CHO-K1-MICA lysate
T7 construct: Full-length entry as expressed from the lentiviral vector
T7 sequence: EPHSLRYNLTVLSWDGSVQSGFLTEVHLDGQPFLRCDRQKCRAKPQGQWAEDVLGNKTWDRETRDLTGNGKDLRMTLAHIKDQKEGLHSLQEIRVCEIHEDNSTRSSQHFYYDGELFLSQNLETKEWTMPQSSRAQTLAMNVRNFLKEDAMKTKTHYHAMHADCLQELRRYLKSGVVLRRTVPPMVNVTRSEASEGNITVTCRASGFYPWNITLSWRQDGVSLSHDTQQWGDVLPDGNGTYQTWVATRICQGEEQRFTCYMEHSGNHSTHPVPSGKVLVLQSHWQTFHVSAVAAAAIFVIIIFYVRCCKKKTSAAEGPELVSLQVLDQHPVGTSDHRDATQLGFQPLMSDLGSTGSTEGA
Experimental: The Western blot assay was used to determine the antigenic epitope characteristics of the MICA antibody.
CHO-K1-MICA, CHO-K1 cells constructed in Example 4 were washed twice with PBS. The RIPA lysate was then added for lysis for 15 min on ice. After 5 min of centrifugation at 15,000 g at 4° C., the supernatant was collected. The lysate supernatant was subjected to protein quantification using a BCA kit. Sample was then prepared with SDS-PAGE loading buffer and the sample addition amount is 50 μg/well. After electrophoresis, the sample was transferred to a nitrocellulose membrane and blocked with 5% nonfat dried milk at room temperature for 1 h. MICA antibody diluted at 1:2000 (w/v) was then added and incubated overnight at 4° C. The membrane was washed 5 min×6 times with 1%% PBST, then HRP-goat anti-mouse IgG diluted at 1:5000 (v/v) was added and incubated at room temperature for 1 h. The membrane was washed 5 min×6 times with 1%% PBST. Chemiluminescence was detected using ECL substrate development. The results are shown in FIG. 8, further showing that the antibody of the present disclosure can bind to a linear epitope of MICA protein.

Measured: binding result

B1: MICA antibody 5A1 (murine monoclonal antibody against human MICA) (antibody, V domains shown)
VH: QVQLKQSGPGLVQPSQSLSITCIVSGFSLTTYGVHWVRQSPGKGLEWLGMIWTDGTTDYNAAFISRLSINKDNSKSQVFLKMNSLQADDTGIYYCVRKGHGYYYAMDYWGQGTSVTVSS
VL: QILLTQSPAILSASLGERVTMTCTASSSVSSSYLHWYQQKPGSSPKLWIYSTSNLASGVPARFSGGGSGTSYSLTVSNMEAEDAATYYCHQYHRSPFTFGSGTKLEIK
notes: Murine monoclonal antibody from a hybridoma; also called No. 5A1; the antibody of the present disclosure
binds: all assays above
